The results in this text go back to publication PMC12651572 (Cells, 2025).

Common to all, as to assay: ELISA; recombinant human antigen coated at 1 μg/mL on Maxisorp plate overnight; antibodies 2 h at room temperature with shaking; HRP anti-human IgG, TMB, OD 450 nm; EC50 by 4PL fit
Conditions in all cases: both partners purified
For orientation: ELISA stands for enzyme-linked immunosorbent assay.

Assay [1] deals with T1, Recombinant human TSLP (thymic stromal lymphopoietin) (Homo sapiens, UniProt Q969D9).
T1 construct: thymic stromal lymphopoietin, human, recombinant; The reporter and T cell assays used other lots of recombinant human TSLP (R&D Systems for the reporter assay); source: bought: AcroBiosystems

Assay [2] addresses T2, Recombinant human IL-4Rα (IL-4 receptor alpha chain) (Homo sapiens, UniProt P24394).
T2 construct: interleukin-4 receptor subunit alpha, human, recombinant; source: bought: AcroBiosystems

The target in assay [3] is T3, Recombinant human IL-4Rα/IL-13Rα1 receptor complex (Homo sapiens, UniProt P24394;P78552).
T3 construct: interleukin-4 receptor subunit alpha, human, recombinant; interleukin-13 receptor subunit alpha-1, human, recombinant; source: bought: AcroBiosystems

B1: IL4R-dupi parental anti-IL-4Rα antibody (dupilumab Fab arms on IgG1 Fc with K409R) (antibody, V domains shown)
VH: EVQLVESGGGLEQPGGSLRLSCAGSGFTFRDYAMTWVRQAPGKGLEWVSSISGSGGNTYYADSVKGRFTISRDNSKNTLYLQMNSLRAEDTAVYYCAKDRLSITIRPRYYGLDVWGQGTTVTVSS
VL: DIVMTQSPLSLPVTPGEPASISCRSSQSLLYSIGYNYLDWYLQKSGQSPQLLIYLGSNRASGVPDRFSGSGSGTDFTLKISRVEAEDVGFYYCMQALQTPYTFGQGTKLEIK
notes: variable region of the dupilumab heavy chain; CH1 and hinge are not described; dupilumab light chain; IgG1; Not the dupilumab analogue with native IgG4 Fc, which was used in the mouse study and the FcRn ELISA; also called IL4R-dupi parental antibody; bivalent IL4R-dupi; source: Expi293F, transiently co-transfected, purified (MabSelect SuRe)
One may read the EC50 as the concentration giving half of the maximal effect. Regarding B1, in assay [1], the binding result is reported as “no binding”. The values for the EC50 in assay [2] and in assay [3] were ~0.76 nM and 0.19 nM, respectively.
